Article PMC12711026 (PLOS Pathogens, 2025)
Where no end group is shown, it is not given here. The star is where a group is joined. Biotin = O=C1N[C@H]2[C@H](CS[C@H]2CCCCC(=O)*)N1

Molecular target: T1, carrier-free recombinant human Netrin-1-His (human, UniProt O95631 25-604)
T1 construct: also called rNetrin-1-His; rNetrin-1
Assay: pull-down; Pierce Pull-Down Biotinylated Protein:Protein Interaction Kit; 150 μL of 0.5 mg/mL biotinylated peptide on streptavidin gel; 100 μL of 1 ng/μL recombinant LHBs with 0, 1, 2 or 4 ng/μL rNetrin-1-His; western blot
Conditions: both partners purified

Question: Does Biotin-NSKMYLKTRA (also called C-terminal HBS of LIPG) [biotinylated LIPG-CTD HBS peptide (amino acids 331–340)] bind?
Answer: binds
